Source: the supplement of paper PMC10567573

B1: LMNB1 (parent)
chain: LYKEELEQTYHAKLENARLSSEMN

Variants of: B1
Assay: protein stability index of a GFP-peptide fusion (GPS, HEK-293T) (PSI 1-6); higher = more stable
Settings: c terminus: a fixed tail appended
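Further: lentivirally expressed fusions sorted by FACS into six bins by GFP to DsRed ratio, PSI derived from sequencing read proportions per bin multiplied by bin number.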

Variant	protein stability index
LYKEELEQTYHAKFENARLSSEMN [L14F]	2.58
LYKEELEQTYHAKTENARLSSEMN [L14T]	4.34
LYKEELEQTYHAKGENARLSSEMN [L14G]	4.36
LYKEELEQTYHAKHENARLSSEMN [L14H]	4.59
LYKEELEQTYHAKIENARLSSEMN [L14I]	3.46
LYKEELEQTYHAKNENARLSSEMN [L14N]	4.54
LYKEELEQTYHAKVENARLSSEMN [L14V]	3.49
LYKEELEQTYHAKCENARLSSEMN [L14C]	4.28
LYKEHLEQTYHAKLENARLSSEMN [E5H]	2.27
LYKEVLEQTYHAKLENARLSSEMN [E5V]	2.77
LYKEDLEQTYHAKLENARLSSEMN [E5D]	3.01
LYKENLEQTYHAKLENARLSSEMN [E5N]	2.53
LYKECLEQTYHAKLENARLSSEMN [E5C]	2.32
LYKERLEQTYHAKLENARLSSEMN [E5R]	1.76
LYKELLEQTYHAKLENARLSSEMN [E5L]	3.89
LYKEILEQTYHAKLENARLSSEMN [E5I]	1.82
LYKEYLEQTYHAKLENARLSSEMN [E5Y]	3.37
LYKEELEQTYHAKLETARLSSEMN [N16T]	2.96
LYKEELEQTYHAKLEHARLSSEMN [N16H]	3.14
LYKEELEQTYHAKLELARLSSEMN [N16L]	3.23
LYKEELEQTYHAKLEKARLSSEMN [N16K]	2.98
LYKEELEQTYHAKLEDARLSSEMN [N16D]	2.92
LYKEELEQTYHAKLEYARLSSEMN [N16Y]	1.83
LYKEELEQTYHAKLEFARLSSEMN [N16F]	1.89

Variant	protein stability index
LYKEEHEQTYHAKLENARLSSEMN [L6H]	4.26
LYKEEVEQTYHAKLENARLSSEMN [L6V]	4.34
LYKEEWEQTYHAKLENARLSSEMN [L6W]	4.74
LYKEEFEQTYHAKLENARLSSEMN [L6F]	3.21
LYKEEIEQTYHAKLENARLSSEMN [L6I]	3.46
LYKEELEQTYQAKLENARLSSEMN [H11Q]	4.24
LYKEELEQTYYAKLENARLSSEMN [H11Y]	2.48
LYKEELEQTYFAKLENARLSSEMN [H11F]	3.29
LYKEELEQTYTAKLENARLSSEMN [H11T]	4.16
LYKEELEQTYDAKLENARLSSEMN [H11D]	4.95
LYVEELEQTYHAKLENARLSSEMN [K3V]	1.67
LYSEELEQTYHAKLENARLSSEMN [K3S]	2.65
LYREELEQTYHAKLENARLSSEMN [K3R]	2.9
LYQEELEQTYHAKLENARLSSEMN [K3Q]	2.56
LYEEELEQTYHAKLENARLSSEMN [K3E]	2.47
LYMEELEQTYHAKLENARLSSEMN [K3M]	1.7
LYIEELEQTYHAKLENARLSSEMN [K3I]	2.19
LYTEELEQTYHAKLENARLSSEMN [K3T]	2.81
LYLEELEQTYHAKLENARLSSEMN [K3L]	1.79
LYKQELEQTYHAKLENARLSSEMN [E4Q]	2.56
LYKHELEQTYHAKLENARLSSEMN [E4H]	2.94
LYKVELEQTYHAKLENARLSSEMN [E4V]	2.97
LYKIELEQTYHAKLENARLSSEMN [E4I]	2.02
LYKWELEQTYHAKLENARLSSEMN [E4W]	1.55

Variant	protein stability index
LYKMELEQTYHAKLENARLSSEMN [E4M]	2.18
LYKAELEQTYHAKLENARLSSEMN [E4A]	2.7
LYKPELEQTYHAKLENARLSSEMN [E4P]	3.68
LYKTELEQTYHAKLENARLSSEMN [E4T]	3.06
KYKEELEQTYHAKLENARLSSEMN [L1K]	2.97
HYKEELEQTYHAKLENARLSSEMN [L1H]	3.19
VYKEELEQTYHAKLENARLSSEMN [L1V]	2.75
PYKEELEQTYHAKLENARLSSEMN [L1P]	4.45
SYKEELEQTYHAKLENARLSSEMN [L1S]	2.9
IYKEELEQTYHAKLENARLSSEMN [L1I]	2.5
TYKEELEQTYHAKLENARLSSEMN [L1T]	2.85
EYKEELEQTYHAKLENARLSSEMN [L1E]	3.99
CYKEELEQTYHAKLENARLSSEMN [L1C]	3.14
MYKEELEQTYHAKLENARLSSEMN [L1M]	3.06
LYKEELEQTYHAKLENMRLSSEMN [A17M]	1.98
LYKEELEQTYHAKLENPRLSSEMN [A17P]	2.66
LYKEELEQTYHAKLENRRLSSEMN [A17R]	3.71
LYKEELEQTYHAKLENIRLSSEMN [A17I]	1.97
LYKEELEQTYHAKLENFRLSSEMN [A17F]	1.82
LYKEELEQTYHAKLENDRLSSEMN [A17D]	4.14
LYKEELEQTYHAKLENGRLSSEMN [A17G]	4.01
LYKEELEQTYHAKLENERLSSEMN [A17E]	4.26
LYKEELEQTYHAKLENQRLSSEMN [A17Q]	3.72
LYKEELEQTYHAKLENNRLSSEMN [A17N]	3.86

Variant	protein stability index
LYKEELEQTYHAKLENHRLSSEMN [A17H]	3.52
LYKEELEQTYHAKLENWRLSSEMN [A17W]	1.78
LYKEELEQTYHAKLENARLSKEMN [S21K]	2.91
LYKEELEQTYHAKLENARLSFEMN [S21F]	2.42
LYKEELEQTYHAKLENARLSNEMN [S21N]	2.55
LYKEELEQTYHAKLENARLSLEMN [S21L]	1.78
LYKEELEQTYHAKLENARLSVEMN [S21V]	2.26
LYKEELEQTYHAKLENARLSQEMN [S21Q]	2.55
LYKEELEQTYHAKLENARLSAEMN [S21A]	2.68
LYKEELEQTYHAKLENARLSTEMN [S21T]	2.83
LYKEELEQTYHAKLENARLSPEMN [S21P]	2.37
LYKEELEQTYHAKLENARLSSEFN [M23F]	2.42
LYKEELEQTYHAKLENARLSSEHN [M23H]	2.94
LYKEELEQTYHAKLENARLSSERN [M23R]	3.21
LYKEELEQTYHAKLENARLSSETN [M23T]	2.52
LYKEELEQTYHAKLENARLSSEWN [M23W]	2.58
LYKEELEQTYHAKLENARLSSENN [M23N]	2.95
LYKEELEQTYHAKLENARLGSEMN [S20G]	2.7
LYKEELEQTYHAKLENARLKSEMN [S20K]	3.6
LYKEELEQTYHAKLENARLDSEMN [S20D]	2.71
LYKEELEQTYHAKLENARLCSEMN [S20C]	2.21
LYKEELEQTYHAKLENARLASEMN [S20A]	2.63
